Data on 4 molecules can be found in PMC11004729.

The target in series [1] is T1, FXR1 (GST-FXR1) (Homo sapiens, UniProt P51114 1-621). As to the kind of experiment: competition EMSA.
The target in a further series is HuR (GST-HuR) (UniProt Q15717 1-326). Description: EMSA. Background: A gel shift assay detects complexes by their altered migration in electrophoresis.
In series [2] the target is T1, FXR1 (GST-FXR1). Description: EMSA.
The target of series [3] is T1, FXR1 (GST-FXR1). As to the kind of experiment: EMSA. This is another data set of the same source.

T1 sequence (P51114 whole entry): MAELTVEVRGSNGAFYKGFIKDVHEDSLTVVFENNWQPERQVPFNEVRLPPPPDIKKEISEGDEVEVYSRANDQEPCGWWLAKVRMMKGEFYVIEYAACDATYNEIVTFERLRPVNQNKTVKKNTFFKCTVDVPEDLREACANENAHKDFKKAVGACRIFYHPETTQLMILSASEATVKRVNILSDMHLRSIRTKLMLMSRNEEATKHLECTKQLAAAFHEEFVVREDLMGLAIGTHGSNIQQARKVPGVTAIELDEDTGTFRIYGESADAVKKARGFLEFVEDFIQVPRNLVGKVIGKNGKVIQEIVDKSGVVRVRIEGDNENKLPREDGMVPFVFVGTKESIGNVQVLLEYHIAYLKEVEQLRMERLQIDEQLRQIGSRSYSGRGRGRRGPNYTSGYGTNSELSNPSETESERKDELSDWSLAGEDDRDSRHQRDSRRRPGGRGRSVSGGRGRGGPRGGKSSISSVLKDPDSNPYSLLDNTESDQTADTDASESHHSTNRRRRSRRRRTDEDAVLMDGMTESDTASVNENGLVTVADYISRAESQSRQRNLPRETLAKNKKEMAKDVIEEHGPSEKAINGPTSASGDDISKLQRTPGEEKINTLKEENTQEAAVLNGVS
Chain of HuR (GST-HuR) (Q15717 whole entry): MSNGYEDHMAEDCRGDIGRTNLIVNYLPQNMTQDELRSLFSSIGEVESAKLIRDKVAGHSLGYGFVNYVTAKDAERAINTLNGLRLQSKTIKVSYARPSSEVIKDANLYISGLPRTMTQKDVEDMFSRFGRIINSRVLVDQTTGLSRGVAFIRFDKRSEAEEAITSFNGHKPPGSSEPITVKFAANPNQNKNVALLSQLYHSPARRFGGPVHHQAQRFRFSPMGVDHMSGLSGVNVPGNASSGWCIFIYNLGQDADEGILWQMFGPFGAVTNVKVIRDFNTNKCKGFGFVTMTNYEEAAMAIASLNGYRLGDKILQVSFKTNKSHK

UUAUUUAUUUUAUUUAUUUUAUUUAUU (ssRNA) [(UUAUUUAUU)3 (probe C)]: the binding result with FXR1 (GST-FXR1) [1] is “binds”.

For the molecule CUUGUGAUUAUUUAUUAUUUAUUUAUUAUUUAUUUAUUUACAGAGAUGAA (ssRNA) [TNFα 3'UTR 50-mer (probe A)], the binding result in the series with HuR (GST-HuR) and with FXR1 (GST-FXR1) [2] was “binds” throughout.

In the case of AUUUA (ssRNA) [AUUUA monomer], the binding result with FXR1 (GST-FXR1) [3] is recorded as “no binding”.

Turning to AUUUAAUUUAAUUUAAUUUAAUUUA (ssRNA) [(AUUUA)5 (probe B)], the binding result in the series with FXR1 (GST-FXR1) [1] is “binds”.
